Laboratory results from US20240247080A1, “GLP1/GIP/NPY2 RECEPTOR TRIPLE AGONISTS” (Boehringer Ingelheim International GmbH, priority 2022, published 2024).
Starred links: 1 amine or outer side, 2 acyl side, 3 side chain; linkers in the order of their positions; H or OH if unused. Non-standard residues stand in square brackets, D forms with d. Groups on a side chain read outwards from the residue. No end group written: not given here. *: point of attachment. C20 diacid = O=C(O)CCCCCCCCCCCCCCCCCCC(=O)*; C18 diacid = O=C(O)CCCCCCCCCCCCCCCCC(=O)*; γGlu = O=C(O)[C@H](CCC(=O)[*:2])N[*:1]; εLys = N[C@@H](CCCCN[*:1])C(=O)[*:2]; AEEA = NCCOCCOCC(=O)O; Aib = CC(C)(N)C(=O)O

T1: GIP receptor (human (printed as hGIPR), UniProt P48546 22-466)
T1 sequence (looked up): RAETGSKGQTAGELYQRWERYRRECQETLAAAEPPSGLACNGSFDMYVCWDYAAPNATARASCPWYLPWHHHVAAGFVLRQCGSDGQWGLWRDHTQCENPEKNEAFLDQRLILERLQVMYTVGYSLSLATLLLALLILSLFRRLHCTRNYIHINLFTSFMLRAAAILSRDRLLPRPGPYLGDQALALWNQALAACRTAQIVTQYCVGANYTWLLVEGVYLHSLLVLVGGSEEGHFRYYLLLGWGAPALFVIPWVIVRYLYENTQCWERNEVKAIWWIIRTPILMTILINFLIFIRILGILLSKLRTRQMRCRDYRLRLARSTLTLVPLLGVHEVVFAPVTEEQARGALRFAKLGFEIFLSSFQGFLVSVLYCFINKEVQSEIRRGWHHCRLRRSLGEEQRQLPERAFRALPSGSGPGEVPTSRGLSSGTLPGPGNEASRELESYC

T2: NPY2 receptor (human (printed as hNPY2R), UniProt P49146 1-381)
T2 sequence (looked up): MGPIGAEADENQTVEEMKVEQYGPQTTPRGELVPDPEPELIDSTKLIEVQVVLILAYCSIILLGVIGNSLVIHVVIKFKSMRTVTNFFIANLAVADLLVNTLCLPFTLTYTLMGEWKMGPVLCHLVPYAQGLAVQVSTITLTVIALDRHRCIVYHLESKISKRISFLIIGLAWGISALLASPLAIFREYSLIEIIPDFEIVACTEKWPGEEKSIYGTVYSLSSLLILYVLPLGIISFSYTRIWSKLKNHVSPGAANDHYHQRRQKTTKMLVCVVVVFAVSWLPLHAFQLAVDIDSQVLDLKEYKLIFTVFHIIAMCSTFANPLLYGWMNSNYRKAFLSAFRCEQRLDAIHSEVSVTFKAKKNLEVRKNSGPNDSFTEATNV

B1: Compound 196 (peptide)
peptide: YXEGTFTSDYSIXLEKQAQXAFVQWLIKGGPEEGASLRHYYNWLTRQRY
modifications: Aib at 2, 13, 20; K28 side chain carries C18DA-E-E-E-E-E-E-eLys (SEQ ID NO: 643); C-terminal amide
B2: Compound 214 (peptide)
peptide: YXEGTFTSDYSIXLEKQAQXAFVEWLIKGGPSSGASLRHYYNWLTRQRY
modifications: Aib at 2, 13, 20; D-Tyr at 49; K28 side chain carries C20DA-gGlu-gGlu-gGlu-gGlu-gGlu-gGlu-eLys; C-terminal amide
B3: Compound 215 (peptide)
peptide: YXEGTFTSDYSIXLEKQAQXEFVEWLIKGGPSSGASLRHYYNWLTRQRY
modifications: Aib at 2, 13, 20; K28 side chain carries C20DA-gGlu-gGlu-gGlu-gGlu-gGlu-gGlu-eLys; C-terminal amide
B4: Compound 197 (peptide)
peptide: YXEGTFTSDYSIXLEKQAQXAFVEWLIKGGPSSGALLRHYYNWLTRQRY
modifications: Aib at 2, 13, 20; K28 side chain carries C20DA-gGlu-gGlu-gGlu-gGlu-gGlu-gGlu-eLys; C-terminal amide
B5: Compound 213 (peptide)
peptide: YXEGTFTSDYSIXLEKQAQXAFVEWLIKGGPSSGASLRHYYXWLTRQRY
modifications: Aib at 2, 13, 20, 42; K28 side chain carries C20DA-gGlu-gGlu-gGlu-gGlu-gGlu-gGlu-eLys; C-terminal amide
B6: Compound 209 (peptide)
peptide: YXEGTFTSDYSIXLELQAQXAFVEWLIKGGPSSGASLRHYYNWLTRQRY
modifications: Aib at 2, 13, 20; K28 side chain carries C20DA-gGlu-gGlu-gGlu-gGlu-gGlu-gGlu-eLys; C-terminal amide
B7: Compound 211 (peptide)
peptide: YXEGTFTSDYSIXLEKQAQDAFVEWLIKGGPSSGASLRHYYNWLTRQRY
modifications: Aib at 2, 13; D-Asp at 20; K28 side chain carries C20DA-gGlu-gGlu-gGlu-gGlu-gGlu-gGlu-eLys; C-terminal amide
B8: Compound 210 (peptide)
peptide: YXEGTFTSDYSIXLEKQAQXAFVEWLIKGGPSSGASLLHYYNWLTRQRY
modifications: Aib at 2, 13, 20; K28 side chain carries C20DA-gGlu-gGlu-gGlu-gGlu-gGlu-gGlu-eLys; C-terminal amide
B9: Compound 208 (peptide)
peptide: YXEGTFTSDYSIXLEKQAQXAFVEWLIKGGPSSGASLRHYYNWLTRXRY
modifications: Aib at 2, 13, 20; bHGln (beta-homo-L-glutamine) at 47; K28 side chain carries C20DA-gGlu-gGlu-gGlu-gGlu-gGlu-gGlu-eLys; C-terminal amide

Experiments:
Experiment in all cases: cell-based or functional assay
[1] = biological target: GLP-1 receptor (human (printed as hGLP1R), UniProt P43220 24-463)
[2] = biological target: T1, GIP receptor
[3] = biological target: T2, NPY2 receptor

EC50 hGLP1R 0.5% hP (CreLuc) [1] | EC50 hGLP1R 100% hP (CreLuc) [1] | EC50 hGIPR 0.5% hP (CreLuc) [2] | EC50 hGIPR 100% hP (CreLuc) [2] | EC50 hNPY2R 0.5% hP (CreLuc) [3] | EC50 hNPY2R 100% hP (CreLuc) [3] | Binder
0.43 nM | 17.2 nM | 0.25 nM | 2.61 nM | 13.4 nM | 61.7 nM | Y[Aib]EGTFTSDYSI[Aib]LEKQAQ[Aib]AFVEWLIKGGPEEPASLRHYYNWLTRQRY-NH2 (not fully specified (residue 28); also: TFA salt) [Compound 206]
0.47 nM | 15.8 nM | 0.26 nM | 5.01 nM | 13.1 nM | 69.9 nM | Y[Aib]EGTFTSDYSI[Aib]LEKQAQ[Aib]EFVEWLIKGGPSSGASLRHYYNWLTRQRY-NH2 (not fully specified (residue 28); also: TFA salt) [Compound 198]
0.48 nM | 25.8 nM | 0.37 nM | 3.56 nM | 12.1 nM | 64.3 nM | Y[Aib]EGTFTSDYSI[Aib]LEKQAE[Aib]AFVQWLIK([εLys-γGlu-γGlu-γGlu-γGlu-γGlu-C20 diacid])GGPSEGASLRHYYNWLTRQRY-NH2 (also: TFA salt) [Compound 200]
0.36 nM | 12.7 nM | 0.63 nM | 1.66 nM | 11 nM | 50.3 nM | Y[Aib]EGTFTSDYSI[Aib]LEKQAQ[Aib]EFVQWLIKGGPSEGASLRHYYNWLTRQRY-NH2 (not fully specified (residue 28); also: TFA salt) [Compound 207]
0.11 nM | 3.69 nM | 0.24 nM | 1.83 nM | 13.5 nM | 122 nM | Y[Aib]EGTFTSDYSI[Aib]LEKQAQ[Aib]AFVEWLIKGGPSSGVSLRHYYNWLTRQRY-NH2 (not fully specified (residue 28); also: TFA salt) [Compound 212]
1.26 nM | 13.8 nM | 0.94 nM | 5.5 nM | 30 nM | 106 nM | Y[Aib]EGTFTSDYSI[Aib]LE[Aib]QAQ[Aib]AFVEWLIKGGPSSGASLRHYYNWLTRQRY-NH2 (not fully specified (residue 28); also: TFA salt) [Compound 199]
0.33 nM | 27 nM | 0.5 nM | 12.4 nM | 9.07 nM | 54.1 nM | Y[Aib]EGTFTSDYSI[Aib]LEKQAQ[Aib]AFVEWLIKGGPSYYASLRHYYNWLTRQRY-NH2 (not fully specified (residue 28); also: TFA salt) [Compound 203]
0.21 nM | 10.4 nM | 0.26 nM | 1.81 nM | 12.9 nM | 64.5 nM | Y[Aib]EGTFTSDYSI[Aib]LEKQAQ[Aib]EFVQWLIK([γGlu-γGlu-γGlu-γGlu-C18 diacid])GGPSEGASLRHYYNWLTRQRY-NH2 (also: TFA salt) [Compound 202]
0.12 nM | 3.14 nM | 0.35 nM | 2.88 nM | > 99.9 nM | > 999 nM | Y[Aib]EGTFTSDYSI[Aib]LEKQAQ[Aib]AFVEWLIKGGPSSGASLRHYYNW[dD]TRQRY-NH2 (not fully specified (residue 28); also: TFA salt) [Compound 204]
0.28 nM | 10.4 nM | 0.49 nM | 1.03 nM | 16.3 nM | 31 nM | Y[Aib]EGTFTSDYSI[Aib]LEKQAQ[Aib]EFVEWLIKGGPSSGASLRHYYNWLTRQRY-NH2 (not fully specified (residue 28); also: TFA salt) [Compound 201]
0.2 nM | 13.6 nM | 0.25 nM | 3.68 nM | 25.2 nM | 152 nM | B1
0.19 nM | 2.65 nM | 0.23 nM | 1.81 nM | > 99.9 nM | 283 nM | B2
0.66 nM | 14 nM | 0.5 nM | 2.94 nM | 12.4 nM | 22.5 nM | B3
0.31 nM | 6.06 nM | 0.43 nM | 3.61 nM | 42.6 nM | 158 nM | B4
0.16 nM | 3.03 nM | 0.34 nM | 1.53 nM | > 100 nM | > 1000 nM | B5
0.48 nM | 16.7 nM | 0.81 nM | 8.57 nM | 35.2 nM | 171 nM | B6
0.74 nM | 25.9 nM | 0.85 nM | 9.79 nM | 11.2 nM | 56.3 nM | B7
0.19 nM | 3.39 nM | 0.28 nM | 2.3 nM | 54.1 nM | 430 nM | B8
0.11 nM | 1.51 nM | 0.07 nM | 0.81 nM | > 100 nM | > 1000 nM | B9
0.44 nM | 12.3 nM | 0.33 nM | 1.87 nM | 10.6 nM | 37.7 nM | Y[Aib]EGTFTSDYSI[Aib]LEKQAQ[Aib]EFVEWLIK([AEEA-AEEA-γGlu-γGlu-γGlu-γGlu-C20 diacid])GGPSSGASLRHYYNWLTRQRY-NH2 (also: TFA salt) [Compound 205]
